B1: Rev3L RBM (residues 1847–1898) (domain or fragment, human, UniProt O60673 1847-1898, looked up)
chain: MLTPTPDSSPRSTSSPSQSKNGSFTPRTANILKPLMSPPSREEIMATLLDHD
notes: The Rev3L chain of m12; also called Rev3L fragment; source: recombinant, purified together with His6-Rev7 R124A; prepared as previously described
B2: TFII-I^1–667 fragment (domain or fragment, human, UniProt P78347 1-667, looked up)
chain: MAQVAMSTLPVEDEESSESRMVVTFLMSALESMCKELAKSKAEVACIAVYETDVFVVGTERGRAFVNTRKDFQKDFVKYCVEEEEKAAEMHKMKSTTQANRMSVDAVEIETLRKTVEDYFCFCYGKALGKSTVVPVPYEKMLRDQSAVVVQGLPEGVAFKHPENYDLATLKWILENKAGISFIIKRPFLEPKKHVGGRVMVTDADRSILSPGGSCGPIKVKTEPTEDSGISLEMAAVTVKEESEDPDYYQYNIQAGPSETDDVDEKQPLSKPLQGSHHSSEGNEGTEMEVPAEDSTQHVPSETSEDPEVEVTIEDDDYSPPSKRPKANELPQPPVPEPANAGKRKVREFNFEKWNARITDLRKQVEELFERKYAQAIKAKGPVTIPYPLFQSHVEDLYVEGLPEGIPFRRPSTYGIPRLERILLAKERIRFVIKKHELLNSTREDLQLDKPASGVKEEWYARITKLRKMVDQLFCKKFAEALGSTEAKAVPYQKFEAHPNDLYVEGLPENIPFRSPSWYGIPRLEKIIQVGNRIKFVIKRPELLTHSTTEVTQPRTNTPVKEDWNVRITKLRKQVEEIFNLKFAQALGLTEAVKVPYPVFESNPEFLYVEGLPEGIPFRSPTWFGIPRLERIVRGSNKIKFVVKKPELVISYLPPGMASKINTKALQ
notes: source: bacteria, GST fusion, purified (glutathione-Sepharose 4B, PreScission, anion exchange, size exclusion)
B3: Rev1 CTD (residues 1140–1251) (domain or fragment, human, UniProt Q9UBZ9 1140-1251, looked up)
chain: GLSSLQSDPAGCVRPPAPNLAGAVEFNDVKTLLREWITTISDPMEEDILQVVKYCTDLIEEKDLEKLDLVIKYMKRLMQQSVESVWNMAFDFILDNVQVVLQQTYGSTLKVT
notes: Rev1 C-terminal domain, residues 1140-1251; also called C-terminal domain (CTD) of Rev1; source: bacteria, GST fusion, purified (glutathione-Sepharose 4B, PreScission, anion exchange, size exclusion)
B4: TFII-I fragment (residues 350–667) containing R2-R4 (domain or fragment, human, UniProt P78347 350-667, looked up)
chain: NFEKWNARITDLRKQVEELFERKYAQAIKAKGPVTIPYPLFQSHVEDLYVEGLPEGIPFRRPSTYGIPRLERILLAKERIRFVIKKHELLNSTREDLQLDKPASGVKEEWYARITKLRKMVDQLFCKKFAEALGSTEAKAVPYQKFEAHPNDLYVEGLPENIPFRSPSWYGIPRLEKIIQVGNRIKFVIKRPELLTHSTTEVTQPRTNTPVKEDWNVRITKLRKQVEEIFNLKFAQALGLTEAVKVPYPVFESNPEFLYVEGLPEGIPFRSPTWFGIPRLERIVRGSNKIKFVVKKPELVISYLPPGMASKINTKALQ
notes: as for B2

What was measured:
His6-Rev7 R124A = target: T1, His6-Rev7 R124A (human, UniProt Q9UI95 1-211, R124A); assay: SEC; purified recombinant proteins mixed (1:1:1 molar ratios for Figure 1E) and fractionated on Superdex 200 10/300 GL; fractions on SDS-PAGE, Coomassie; conditions: both partners purified
T1 construct: human Rev7 with R124A (disrupts Rev7 dimerization); The Rev7 chain of m12, written alone for the pairs that touch inside the reconstituted complexes; source: prepared as previously described
T1 sequence (Q9UI95 whole entry R124A): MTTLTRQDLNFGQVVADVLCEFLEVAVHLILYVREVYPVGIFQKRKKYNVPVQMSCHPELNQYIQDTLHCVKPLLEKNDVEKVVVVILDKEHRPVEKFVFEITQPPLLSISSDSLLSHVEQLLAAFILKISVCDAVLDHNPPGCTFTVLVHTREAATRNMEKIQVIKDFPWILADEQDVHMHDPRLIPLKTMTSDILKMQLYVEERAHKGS

[1] = target: the molecule itself; assay: SEC; single purified TFII-I fragments fractionated on Superdex 200; apparent molecular mass against standards; monomer or homodimer
[2] = target: T2, Rev7 R124A–Rev3L (residues 1847–1898) complex (human, UniProt Q9UI95 1-211; O60673 1847-1898, R124A); assay: SEC; purified recombinant proteins mixed (1:1:1 molar ratios for Figure 1E) and fractionated on Superdex 200 10/300 GL; fractions on SDS-PAGE, Coomassie; conditions: both partners purified
T2 construct: human Rev7 with R124A (disrupts Rev7 dimerization); also called Rev7–Rev3L; source: recombinant, purified; prepared as previously described; copies: 1 + 1
T2 sequence (Q9UI95 whole entry R124A, the tested form may be a part, one chain of several): as the sequence (Q9UI95 whole entry R124A) above

Binder | stoichiometry N [2] | also measured
B1 |  | binding result (His6-Rev7 R124A): binds
B2 |  | stoichiometry N [1]: 2
B3 | 1 | 
B4 | 1 | 
